Consider eight molecules from PMC10724065, “Evolution of a plant growth-regulatory protein interaction specificity” (Nature Plants, 2023).

For test [1], the target named is Marchantia polymorpha MpDELLA (yeast prey fusion). Briefly: yeast 2-hybrid. The following applies: parent: est. 180; read off a plot.
The target in test [2] is A. thaliana GAI (yeast prey fusion) (UniProt Q9LQT8). The test can be described thus: yeast 2-hybrid. The following applies: parent: est. 37; read off a plot.
Test [3] addresses T1, His-tagged GAI (Arabidopsis thaliana, UniProt Q9LQT8 1-533).
T1 construct: GAI of A. thaliana; also called His-GAI; His-tagged AtGAI; source: E. coli BL21, purified (Ni-NTA agarose)
T1 sequence (looked up): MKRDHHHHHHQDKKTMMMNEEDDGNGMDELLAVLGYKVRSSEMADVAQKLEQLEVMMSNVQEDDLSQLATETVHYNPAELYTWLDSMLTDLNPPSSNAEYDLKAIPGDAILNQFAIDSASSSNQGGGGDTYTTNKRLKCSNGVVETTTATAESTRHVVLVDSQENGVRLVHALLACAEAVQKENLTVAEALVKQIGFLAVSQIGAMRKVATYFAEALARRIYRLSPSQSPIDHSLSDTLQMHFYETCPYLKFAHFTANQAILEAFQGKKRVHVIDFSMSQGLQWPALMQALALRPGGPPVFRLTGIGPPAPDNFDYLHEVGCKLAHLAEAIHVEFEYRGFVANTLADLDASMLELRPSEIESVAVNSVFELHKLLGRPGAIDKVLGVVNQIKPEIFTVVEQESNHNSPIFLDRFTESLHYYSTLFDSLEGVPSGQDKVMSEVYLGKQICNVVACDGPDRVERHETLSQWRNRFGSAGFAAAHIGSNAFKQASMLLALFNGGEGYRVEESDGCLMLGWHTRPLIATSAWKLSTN
Briefly: pull-down; 5 μg His-GAI held on Ni-NTA agarose, 5 μg MBP-SLY1/sly1 added with an equal amount of GST-GID1C and 0.1 mM GA3, 1 h at 4 °C, immunoblot with anti-His, anti-MBP and anti-GST. The following applies: both partners purified. In general terms: A western blot detects proteins with antibodies after separation by electrophoresis.

The target in test [4] is T1, His-tagged GAI. Briefly: pull-down; 5 μg His-GAI/gai held on Ni-NTA agarose, 5 μg MBP-SLY1/sly1 added, 1 h at 4 °C, five washes, immunoblot with anti-His and anti-MBP. The following applies: both partners purified.

For the molecule “Marchantia polymorpha MpSLY1 (yeast bait fusion) H147K”, the response (β-galactosidase units) in test [1] was 130. Consider “Marchantia polymorpha MpSLY1 (yeast bait fusion) R118P”, for which the response (β-galactosidase units) in test [1] stood at 50.

For “Marchantia polymorpha MpSLY1 (yeast bait fusion) S149T”, the response (β-galactosidase units) in test [1] turned out to be 100.

Take “Marchantia polymorpha MpSLY1 (yeast bait fusion) Y108F”: the response (β-galactosidase units) in test [2] was 17.

B1: GST-GID1C (receptor, Arabidopsis thaliana, UniProt Q940G6 1-344, looked up)
chain: MAGSEEVNLIESKTVVPLNTWVLISNFKLAYNLLRRPDGTFNRHLAEFLDRKVPANANPVNGVFSFDVIIDRQTNLLSRVYRPADAGTSPSITDLQNPVDGEIVPVIVFFHGGSFAHSSANSAIYDTLCRRLVGLCGAVVVSVNYRRAPENRYPCAYDDGWAVLKWVNSSSWLRSKKDSKVRIFLAGDSSGGNIVHNVAVRAVESRIDVLGNILLNPMFGGTERTESEKRLDGKYFVTVRDRDWYWRAFLPEGEDREHPACSPFGPRSKSLEGLSFPKSLVVVAGLDLIQDWQLKYAEGLKKAGQEVKLLYLEQATIGFYLLPNNNHFHTVMDEIAAFVNAECQ
notes: GID1C, gibberellin receptor of A. thaliana; Used together with 0.1 mM GA3; also called GST-AtGID1C; source: E. coli BL21, purified (glutathione beads)
Take B1: the binding result with His-tagged GAI [3] is “binds”.

B2: MBP-tagged AtSLY1 (natural protein, Arabidopsis thaliana, UniProt Q9STX3 1-151, looked up)
chain: MKRSTTDSDLAGDAHNETNKKMKSTEEEEIGFSNLDENLVYEVLKHVDAKTLAMSSCVSKIWHKTAQDERLWELICTRHWTNIGCGQNQLRSVVLALGGFRRLHSLYLWPLSKPNPRARFGKDELKLTLSLLSIRYYEKMSFTKRPLPESK
notes: AtSLY1 of A. thaliana; also called MBP-SLY1; source: E. coli BL21, purified (amylose resin)
For the molecule B2, the binding result in the test with His-tagged GAI [4] was “binds”.

B3: MBP-tagged Atsly1^H104Y (natural protein, Arabidopsis thaliana, UniProt Q9STX3 1-151, looked up)
chain: MKRSTTDSDLAGDAHNETNKKMKSTEEEEIGFSNLDENLVYEVLKHVDAKTLAMSSCVSKIWHKTAQDERLWELICTRHWTNIGCGQNQLRSVVLALGGFRRLYSLYLWPLSKPNPRARFGKDELKLTLSLLSIRYYEKMSFTKRPLPESK
notes: AtSLY1 of A. thaliana with H104Y; cloned into pMAL-c2X; source: E. coli BL21, purified (amylose resin)
With B3, the binding result in the test with His-tagged GAI [4] was “binds”.

B4: MBP-sly1^gar2-1 (E138K) (natural protein, Arabidopsis thaliana, UniProt Q9STX3 1-151, looked up)
chain: MKRSTTDSDLAGDAHNETNKKMKSTEEEEIGFSNLDENLVYEVLKHVDAKTLAMSSCVSKIWHKTAQDERLWELICTRHWTNIGCGQNQLRSVVLALGGFRRLHSLYLWPLSKPNPRARFGKDELKLTLSLLSIRYYKKMSFTKRPLPESK
notes: AtSLY1 of A. thaliana with E138K; cloned into pMAL-c2X; also called MBP-tagged Atsly1^gar2-1; source: E. coli BL21, purified (amylose resin)
On to B4, for which the binding result in the test with His-tagged GAI [4] is listed as “binds”.
